The target of one data set is DHX9 (UniProt Q08211 1-1270). The data set is described as follows: EMSA; shift at 20 nM DHX9; 5 nM R-loop; no ATP or Mg2+ listed in binding buffer; EMSA: 5 nM R-loop, 0.5% NP-40, 150 mM NaCl, 20 mM Tris-Cl pH 8.0, 0.5 mM EDTA, 37 °C 15 min; 6% native PAGE. Conditions: protein: recombinant; tags: Flag; label: 5' Cy5.5 on RNA; three-strand R-loop, DNA duplex arms around an unpaired bubble; RNA nt 1-30 pair with ssDNA-2, 3' RNA overhang 30 nt. Background: Mobility shift assays separate free from complexed probe on a gel.
Chain of DHX9 (Q08211 whole entry): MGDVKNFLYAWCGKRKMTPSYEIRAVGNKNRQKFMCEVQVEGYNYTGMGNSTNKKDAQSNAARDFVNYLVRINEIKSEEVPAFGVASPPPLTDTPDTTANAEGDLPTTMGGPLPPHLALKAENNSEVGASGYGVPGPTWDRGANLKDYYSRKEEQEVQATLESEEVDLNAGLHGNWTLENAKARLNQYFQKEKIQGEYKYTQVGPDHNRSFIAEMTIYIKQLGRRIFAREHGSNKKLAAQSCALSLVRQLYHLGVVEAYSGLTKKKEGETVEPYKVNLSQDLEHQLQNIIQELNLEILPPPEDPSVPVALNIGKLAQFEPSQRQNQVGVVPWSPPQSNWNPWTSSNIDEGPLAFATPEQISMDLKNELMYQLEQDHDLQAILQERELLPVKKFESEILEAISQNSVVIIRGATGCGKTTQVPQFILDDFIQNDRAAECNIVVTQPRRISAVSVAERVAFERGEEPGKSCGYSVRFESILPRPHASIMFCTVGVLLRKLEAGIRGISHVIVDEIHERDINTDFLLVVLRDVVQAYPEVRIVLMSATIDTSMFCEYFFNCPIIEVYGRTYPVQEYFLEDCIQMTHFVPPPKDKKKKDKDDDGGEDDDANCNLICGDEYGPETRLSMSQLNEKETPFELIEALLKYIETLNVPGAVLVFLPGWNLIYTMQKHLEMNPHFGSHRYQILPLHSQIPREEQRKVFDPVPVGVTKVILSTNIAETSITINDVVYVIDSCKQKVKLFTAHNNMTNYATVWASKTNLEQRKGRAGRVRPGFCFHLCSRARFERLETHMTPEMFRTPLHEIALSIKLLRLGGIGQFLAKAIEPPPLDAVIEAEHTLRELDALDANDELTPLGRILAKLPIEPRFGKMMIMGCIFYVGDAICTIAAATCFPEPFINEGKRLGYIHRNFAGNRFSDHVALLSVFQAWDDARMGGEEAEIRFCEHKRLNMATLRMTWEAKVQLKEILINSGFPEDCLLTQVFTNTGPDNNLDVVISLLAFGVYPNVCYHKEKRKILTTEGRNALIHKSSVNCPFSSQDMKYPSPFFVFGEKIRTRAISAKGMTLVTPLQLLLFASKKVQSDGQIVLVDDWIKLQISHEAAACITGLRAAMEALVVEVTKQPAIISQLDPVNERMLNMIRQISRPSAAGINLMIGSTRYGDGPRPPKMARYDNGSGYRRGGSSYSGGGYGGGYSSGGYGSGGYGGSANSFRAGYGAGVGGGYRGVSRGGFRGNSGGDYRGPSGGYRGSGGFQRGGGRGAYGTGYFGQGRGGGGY

Data set [1] concerns the target T1, σ3 WT (REOV outer capsid protein) (Mammalian orthoreovirus, UniProt P07939 1-365).
T1 sequence: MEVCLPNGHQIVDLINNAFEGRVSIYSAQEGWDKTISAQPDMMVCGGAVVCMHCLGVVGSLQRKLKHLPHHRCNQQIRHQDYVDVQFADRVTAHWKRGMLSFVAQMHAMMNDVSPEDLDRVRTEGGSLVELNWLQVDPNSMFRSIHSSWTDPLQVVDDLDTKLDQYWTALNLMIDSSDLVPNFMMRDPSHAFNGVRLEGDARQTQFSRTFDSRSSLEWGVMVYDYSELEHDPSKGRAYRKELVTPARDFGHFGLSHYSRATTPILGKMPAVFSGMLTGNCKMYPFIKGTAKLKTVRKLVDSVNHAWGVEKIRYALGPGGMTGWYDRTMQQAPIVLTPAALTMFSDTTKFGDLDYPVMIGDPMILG
The data set is described as follows: EMSA; no shift at any σ3 concentration tested; 5 nM R-loop; without DHX9; EMSA: 5 nM R-loop, 0.5% NP-40, 150 mM NaCl, 20 mM Tris-Cl pH 8.0, 0.5 mM EDTA, 37 °C 15 min; 6% native PAGE. Conditions: protein: recombinant; tags: Flag; label: 5' Cy5.5 on RNA; three-strand R-loop, DNA duplex arms around an unpaired bubble; RNA nt 1-30 pair with ssDNA-2, 3' RNA overhang 30 nt.

B1: R-loop substrate with RNA 3' overhang (mixed)
DNA 1: CATTGCATATTTAAAACATGTTGGATCCCACGTTGCATGCTGATAGCCTACTAGAGCTGTATGAATTCAAATGACCTCTTATCAAGTGAC
DNA 2: GTCACTTGATAAGAGGTCATTTGAATTCATGGCTTAGAGCTTAATTGCTGAATCTGGTGCTGGGATCCAACATGTTTTAAATATGCAATG
RNA: GCACCAGAUUCAGCAAUUAAGCUCUAAGCCGCUGACGGCUCGAUGCUGAUCGUAGCAUCG
B1: the values for the binding result (with DHX9; in data set [1]) were “binds” and “no binding”, respectively.

Source of the values: article PMC12915084, “A dsRNA Viral Transcriptional Regulator Evades Innate Immunity by Hijacking Host CoTranscription Factor DHX9”.
